Results taken from patent publication US20110124552A1.

Target: mouse CCR2 on mouse cells (splenocytes, T cells, plasma cells, macrophages, EG7 lymphoma cells) (mouse) (UniProt P51683)
Experiment: cell-based or functional assay

Sequence of UniProt P51683 (P51683 whole entry): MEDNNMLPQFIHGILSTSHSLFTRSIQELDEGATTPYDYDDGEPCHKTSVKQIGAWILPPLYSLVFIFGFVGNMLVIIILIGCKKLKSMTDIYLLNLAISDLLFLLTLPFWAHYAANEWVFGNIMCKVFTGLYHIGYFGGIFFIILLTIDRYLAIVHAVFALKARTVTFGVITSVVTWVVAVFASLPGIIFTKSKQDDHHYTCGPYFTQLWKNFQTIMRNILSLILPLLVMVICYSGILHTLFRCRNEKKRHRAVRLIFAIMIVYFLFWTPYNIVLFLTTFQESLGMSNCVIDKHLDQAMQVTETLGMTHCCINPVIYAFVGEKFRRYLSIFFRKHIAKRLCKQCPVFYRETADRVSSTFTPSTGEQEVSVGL

- CD4 T-cells positive for intracellular IL17: 19%
Substance: recombinant CCL2 (rCCL2, CCL2 1-76) (from UniProt P10148 24-99) (ligand)
- cell death of RA-derived CD4 T-cells, PI/Annexin-V co-staining, 48 h: 15%
